# Laboratory results reported in patent US20050287636.
# B1: LCAT (lecitin:cholesterol acyltransferase) (protein)
# chain: FWLLNVLFPPHTTPKAELSNHTRPVILVPGCLGNQLEAKLDKPDVVNWMCYRKTEDFFTIWLDLNMFLPLGVDCWIDNTRVVYNRSSGLVSNAPGVQIRVPGFGKTYSVEYLDSSKLAGYLHTLVQNLVNNGYVRDETVRAAPYDWRLEPGQQEEYYRKLAGLVEEMHAAYGKPVFLIGHSLGCLHLLYFLLRQPQAWKDRFIDGFISLGAPWGGSIKPMLVLASGDNQGIPIMSSIKLKEEQRITTTSPWMFPSRMAWPEDHVFISTPSFNYTGRDFQRFFADLHFEEGWYMWLQSRDLLAGLPAPGVEVYCLYGVGLPTPRTYIYDHGFPYTDPVGVLYEDGDDTVATRSTELCGLWQGRQPQPVHLLPLHGIQHLNMVFSNLTLEHINAILLGAYRQGPPASPTASPEPPPPE
# Sequence of proapoA-I-D157K (chain, as listed by the source D157K): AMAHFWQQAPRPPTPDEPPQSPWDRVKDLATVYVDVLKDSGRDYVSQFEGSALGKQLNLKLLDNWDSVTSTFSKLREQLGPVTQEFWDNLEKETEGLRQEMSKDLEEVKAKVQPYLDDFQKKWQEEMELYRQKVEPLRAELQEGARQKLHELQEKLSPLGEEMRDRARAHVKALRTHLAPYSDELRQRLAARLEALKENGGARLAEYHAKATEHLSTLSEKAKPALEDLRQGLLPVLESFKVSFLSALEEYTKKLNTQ
# Sequence of wild-type (WT) proapoA-I (chain, as listed by the source): as the sequence (chain, as listed by the source D157K) above, with K172D counted along it
# Sequence of proapoA-I-V156K (chain, as listed by the source V156K): as the sequence (chain, as listed by the source D157K) above, with V171K, K172D counted along it
# Sequence of proapoA-I-H155E (chain, as listed by the source H155E): as the sequence (chain, as listed by the source D157K) above, with H170E, K172D counted along it
# Sequence of proapoA-I-A158E (chain, as listed by the source A158E): as the sequence (chain, as listed by the source D157K) above, with K172D, A173E counted along it
# Sequence of proapoA-I-A154E (chain, as listed by the source A154E): as the sequence (chain, as listed by the source D157K) above, with A169E, K172D counted along it
protein,measurement,setting,value
B1,Apparent Vmax (LCAT activation by POPC-rHDL),proapoA-I-D157K,1.8
same,Apparent Vmax (LCAT activation by POPC-rHDL),proapoA-I-A154E,3.5
same,Apparent Vmax (LCAT activation by POPC-rHDL),proapoA-I-V156K,0.3
same,Apparent Vmax (LCAT activation by POPC-rHDL),proapoA-I-A158E,0.5
same,Apparent Vmax (LCAT activation by POPC-rHDL),wild-type (WT) proapoA-I,3.3
same,Apparent Vmax (LCAT activation by POPC-rHDL),proapoA-I-H155E,2.6
